Our source for the binding result and Kd values is PMC4333399.

The target in data set [1] is T1, PCG2-DBD WT (Magnaporthe oryzae, UniProt G4NA99 1-138). Put plainly: crystal structure; two PCG2-DBD monomers per duplex; SPR (Biacore T100, steady state): 20 mM Tris pH 8.0, 150 mM NaCl, 0.005% Tween20; temperature not stated. The settings on record: protein: recombinant; tags: N-terminal 6xHis (pHAT2); chain copies: 2; blunt. (In general: Surface plasmon resonance follows binding to a sensor surface in real time, without labels.)

The target in data set [2] is PCG2-DBD 12-128 (Magnaporthe oryzae, UniProt G4NA99 12-128). Put plainly: SPR; SPR (Biacore T100, steady state): 20 mM Tris pH 8.0, 150 mM NaCl, 0.005% Tween20; temperature not stated. The settings on record: protein: recombinant; tags: N-terminal 6xHis; label: 5'-biotin on strand S2; blunt.
The target in data set [3] is PCG2-DBD 12-138 (Magnaporthe oryzae, UniProt G4NA99 12-138). The data set is described as above. The settings on record: protein: recombinant; tags: N-terminal 6xHis; chain copies: 2; label: 5'-biotin on strand S2; blunt.
Data set [4] concerns the target PCG2-DBD 1-128 (Magnaporthe oryzae, UniProt G4NA99 1-128). The description is as above. The settings on record: protein: recombinant; tags: N-terminal 6xHis; label: 5'-biotin on strand S2; blunt.
Data set [5] has as its target T1, PCG2-DBD WT. The data set is described as above. The note with it: protein: recombinant; tags: N-terminal 6xHis (pHAT2); chain copies: 2; label: 5'-biotin on strand S2; blunt.

B1: MCB1 DNA (crystal) (dsDNA)
DNA 1: CAATGACGCGTAAG
DNA 2: CTTACGCGTCATTG
B1: the binding result in data set [1] is given as “binds”.

B2: MCB1 DNA (SPR) (dsDNA)
DNA 1: CTTACGCGTCATTG
DNA 2: CAATGACGCGTAAG
One may read the Kd as a measure of binding affinity in units of concentration. With B2, the equilibrium dissociation constant (Kd) was determined as 48.3 ± 5.2 µM in data set [2], 1370 ± 450 nM in data set [3], 29.8 ± 6.3 µM in data set [4] and 810 ± 30 nM in data set [5].
